Measured values taken from PMC5934386, “Active Site Gate Dynamics Modulate the Catalytic Activity of the Ubiquitination Enzyme E2-25K” (Scientific Reports, 2018).

Target: T1, Human ubiquitin (human, UniProt P0CG48 1-76)
T1 construct: ubiquitin, human; the cut product of the ubiquitin precursors; also called acceptor Ub; source: bought: BostonBiochem (lyophilized)
Test: NMR titration; 2D 1H-15N HSQC at 600 MHz; [U-15N]-E2-25K at 417-428 uM with ubiquitin at 0, 200, 400, 560, 790 and 1600 uM in six samples; PBS buffer (20 mM sodium phosphate, 150 mM NaCl, DTT, pH 7.4); chemical shift changes fit to a 1:1 binding isotherm; kon and koff from 15N lineshape analysis of G173 (Bloch-McConnell, two site exchange)
Conditions: both partners purified

- Kd: 206 ± 30 µM
- koff: 5890 s⁻¹
- kon: 2.9e+07 M⁻¹ s⁻¹
B1: Human E2-25K (enzyme, UniProt P61086 1-200, looked up)
chain: MANIAVQRIKREFKEVLKSEETSKNQIKVDLVDENFTELRGEIAGPPDTPYEGGRYQLEIKIPETYPFNPPKVRFITKIWHPNISSVTGAICLDILKDQWAAAMTLRTVLLSLQALLAAAEPDDPQDAVVANQYKQNPEMFKQTARLWAHVYAGAPVSSPEYTKKIENLCAMGFDRNAVIVALSSKSWDVETATELLLSN
notes: E2-25K (ubiquitin-conjugating enzyme, UBC core domain and UBA domain), human; called 'intact human E2-25K' in the results; cloned into pHis-parallel1; [U-15N]-labelled for the NMR titration; also called wildtype E2-25K; intact human E2-25K; source: E. coli BL21(DE3)-RIPL, purified (His-prep column, TEV cleavage, Superdex 75)
